Target: T1, human cannabinoid type 1 (CB1) receptor (human, UniProt P21554 1-472)
Test: cell-based or functional assay

T1 sequence (P21554 whole entry): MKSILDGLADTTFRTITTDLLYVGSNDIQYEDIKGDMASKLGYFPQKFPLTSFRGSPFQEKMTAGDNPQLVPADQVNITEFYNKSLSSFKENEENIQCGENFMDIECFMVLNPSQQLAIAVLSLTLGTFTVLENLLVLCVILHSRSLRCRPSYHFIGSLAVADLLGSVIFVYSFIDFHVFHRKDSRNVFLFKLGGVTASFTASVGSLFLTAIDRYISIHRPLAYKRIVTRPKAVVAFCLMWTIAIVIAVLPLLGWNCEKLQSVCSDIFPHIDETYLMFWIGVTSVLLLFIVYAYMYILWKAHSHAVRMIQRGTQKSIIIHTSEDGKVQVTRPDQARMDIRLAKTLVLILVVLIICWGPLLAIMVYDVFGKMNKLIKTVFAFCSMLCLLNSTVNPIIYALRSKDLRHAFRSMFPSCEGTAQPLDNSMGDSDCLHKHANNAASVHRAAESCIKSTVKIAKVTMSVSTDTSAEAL

| Ca^2+ influx assay IC50 | cAMP assay IC50 | Binder |
| --- | --- | --- |
| 2.62 nM | 28.6 nM | Nimacimab (BIRD ROCK BIO) (antibody, V domains shown) VH: QVQLVQSGAEVKKPGSSVKVSCKASGYEFSYYWMNWVRQAPGQGLEWMGQIYPGDGETKYAQKFQGRVTITADKSTSTAYMELSSLRSEDTAVYYCARSHGNYLPYWGQGTLVTVSS VL: EIVLTQSPATLSLSPGERATLSCRASQSVSSSYLHWYQQKPGQAPRLLIYSTSNLASGIPARFSGSGSGTDFTLTISRLEPEDFAVYYCHQYHRSPPTFGQGTKVEIK |
| 0.55 nM | 8.5 nM | hIML1-2-OP1 (antibody, V domains shown) VH: QVQLVQSGAEVKKPGASVKVSCKASGYEFNYYWMNWVRQAPGQGLEWMGQIYPGDGDNRYNGKFKGRVTMTRDTSTSTVYMELSSLRSEDTAVYYCARTGSGRFAYWGQGTLVTVSS VL: DIQMTQSPSSLSASVGDRVTITCKASSSVSTRYLHWYQQKPGKAPKLLIYGTSNIASGVPSRFSGSGSGTDFTLTISSLQPEDVATYYCQQYTAFPLTFGQGTKVEIKR |
| 2.03 nM | 5.9 nM | h2F8 (antibody, V domains shown) VH: QVQLVQSGAEVKKPGASVKVSCKASGYEFSYYWMNWVRQAPGQGLEWMGQIYPGDGDTNYNGKFKGRVTMTRDTSTSTVYMELSSLRSEDTAVYYCARSHGNYMIYWGQGTTVTVSS VL: EIVLTQSPGTLSLSPGERATLSCIASSSVSSSYLHWYQQKPGQAPRLLIHSTSNLASGIPERFSGSGSGPDFTLTISRLKPEDFAVYYCHQYHRSPRTFGQGTKVEIKR |

Target: T1, human cannabinoid type 1 (CB1) receptor
Test: cell-based or functional assay
Remark: another data set of the same source

| Ca^2+ influx assay IC50 | cAMP assay IC50 | Binder |
| --- | --- | --- |
| 1.77 nM | 5.9 nM | mIML1-2 (antibody, V domains shown) VH: QVQLQQSGAELVKPGASVKIACKASGYEFNYYWMNWVKQRPGKGLEWIGQIYPGDGDNKYNGKFKGKATLTADKSSSTVYMQLNSLTSEDSAVYFCARTGSGRFAYWGQGTLVTVSA VL: QIVLTQSPAIMSASPGEKVTMTCRASSSVSSSYLHWYQQKSGASPKLWIYSTSNLASGVPARFSGSGSGTSYSLTITSVEAEDVATYYCQQYSGFPLTFGSGTKLEIKR |
| 0.9 nM | 4.9 nM | m2F8 (antibody, V domains shown) VH: QVQLQQSGAELVKPGASVKISCKASGYEFSYYWMNWVKQRPGKGLEWIGQIYPGDGDTNYNGKFKGKATLAAGKSSSTAYMQLSSLTSEDSAVYFCARSHGNYMIYWGQGTSVTVSS VL: QIVLTQSPAIMSASLGERITLTCIASSSVSSSYLHWYQQKPGSSPKLWIYSTSNLASGVPTRFSGSGSGTSFSLTISTMEAEDAATYYCHQYHRSPRTFGGGTKLEIKR |
| 1.22 nM | 5 nM | m24C4 (antibody, V domains shown) VH: QVQLQQSGAELVKPGASVKISCKASGYEFSYYWMNWVKQRPGKGLEWIGQIYPGDGDTNYNGKFKGKATLTADKSSSTAYMQLSSLTSEDSAVYFCARSHGNYMHYWGQGTSVTVSS VL: QIVLTQSPAIMSASLGERITLTCTASSSVSSSYLHWYQQKPGSSPKLWIYSTSNLASGVPTRFSGSGSGTSFSLTISTMEAEDAATYYCHQYHRSPRTFGGGTKLEIKR |
| 1.85 nM | 6.5 nM | m26C7 (antibody, V domains shown) VH: QVQLQQSGAELVKPGASVKISCKASGYEFSYYWMNWVKQRPGKGLEWIGQIYPGDGDTNYNGKFKGKATLTADKSSSTAYMQLSSLTSEDSAVYFCARSHGNYMAYWGQGTSVTVSS VL: QIVLTQSPAIMSASLGERITLTCTASSSVSSSYLHWYQQKPGSSPKLWIYSTSNLASGVPTRFSGSGSGTSFSLTISTMEAEDAATYYCHQYHRSPRTFGGGTKLEIKR |
| 1.29 nM | 3.9 nM | m4D7 (antibody, V domains shown) VH: QVQLQQSGAELVKPGASVKISCKASGYEFSYYWMNWVKQRPGKGLEWIGQIYPGDGDTNYNGKFKGKATVTADKSSSTAYMQLSSLTSEDSAVYFCAKSHGNYMDYWGQGTSVTVSS VL: QIVLTQSPAIMSASLGERITLTCTASSSVSSSYLHWYQQKPGSSPKLWIYSTSNLASGVPTRFSGSGSGTSFSLTISTMEAEDAATYYCHQYHRSPRTFGGGTKLEIKR |

From patent publication US20250326836A1 (SHIONOGI, published 2025)
